Test results reported in patent US20190282704A1.

Columns and labels:
[1] = molecular target: wildtype feline IL-31 (Feline_IL31_wildtype) (feline); assay: indirect ELISA, coated IL-31
[2] = molecular target: feline IL-31 15H05 mutant (Feline_IL31_15H05 mutant) (feline); assay: indirect ELISA, coated IL-31
[3] = molecular target: wildtype feline IL-31 (Feline_IL31_wildtype) (feline)
[4] = molecular target: wildtype feline IL-31 (Feline_IL31_wildtype) (feline); assay: SPR (Biacore), immobilised IL-31, 1:1 fit
[5] = molecular target: canine IL-31 (Canine_IL31) (canine); assay: SPR (Biacore), immobilised IL-31, 1:1 fit
canine IL-31 (Canine_IL31) (canine), sequence (chain, as listed by the source limits assumed, form in doubt): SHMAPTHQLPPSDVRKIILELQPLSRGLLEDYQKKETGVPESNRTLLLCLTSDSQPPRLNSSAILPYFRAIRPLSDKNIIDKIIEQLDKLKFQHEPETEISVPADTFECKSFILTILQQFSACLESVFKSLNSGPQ

feline IL-31 15H05 mutant (Feline_IL31_15H05 mutant) (feline), sequence (chain, as listed by the source mutant limits assumed, form in doubt): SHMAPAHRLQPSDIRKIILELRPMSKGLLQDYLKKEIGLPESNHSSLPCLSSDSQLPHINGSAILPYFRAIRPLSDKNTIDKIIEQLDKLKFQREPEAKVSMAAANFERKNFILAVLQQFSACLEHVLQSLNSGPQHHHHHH
wildtype feline IL-31 (Feline_IL31_wildtype) (feline), sequence (chain, as listed by the source limits assumed, form in doubt): as the sequence (chain, as listed by the source mutant limits assumed, form in doubt) above, with A103P, A105D counted along it

Binder	Binding (ELISA OD) [1] [OD]	Binding (ELISA OD) [2] [OD]	IC50, inhibition of feline IL-31-induced STAT3 phosphorylation, feline FCWF4 cells [3] [µg/mL]	Kd [4] [nM]	koff [4] [s⁻¹]	kon [4] [M⁻¹ s⁻¹]	Kd [5] [nM]	koff [5] [s⁻¹]	kon [5] [M⁻¹ s⁻¹]	IC50, inhibition of feline IL-31-induced STAT3 phosphorylation, canine DH82 cells [3] [µg/mL]
ZIL159 (antibody, V domains shown) VH: EVQLVESGGDLVKPAGSLRLSCVASGFTFSSYVMTWVRQAPGKGLQWVAGINSEGSRTAYADAVKGRFTISRDNAKNTLYLQIDSLRAEDTAIYYCATGDIVATGTSYWGQGTLVTVSS VL: SNVLTQPPSVSVSLGQTATISCSGETLNRFYTQWFQQKAGQAPVLVIYKDTERPSGIPDRFSGSSSGNIHTLTISGARAEDEAAYYCKSAVSIDVGVFGGGTHLTVFR	1.6	1.31	–	–	–	–	–	–	–	–
ZIL154 (antibody, V domains shown) VH: EVHLVESGGDLVKPWGSLRLSCVASGFTFSDRGMSWVRQSPGKGLQWVAYIRYDGSRTDYADAVEGRFTISRDNAKNTLYLQMNSLRAEDTAVYYCARWDGSSFDYWGQGTLVTVSS VL: DIVVTQTPLSLSVSPGETASFSCKASQSLLHSDGNTYLDWFRQKPGQSPQRLIYKVSNRDPGVPDRFSGSGSGTDFTLRISGVEADDAGLYYCMQAIHFPLTFGAGTKVELKR	1.62	1.38	–	–	–	–	–	–	–	–
ZIL1 (antibody, V domains shown) VH: EVQLVESGGDLVKPGGSLRLSCVASGFTFSSYGMSWVRQAPGKGLQWVAHINSGGSSTYYADAVKGRFTISRDNAKNTLYLQMNSLRAEDTAVYYCVEVYTTLAAFWTDNFDYWGQGTLVTVSS VL: QSVLTQPTSVSGSLGQRVTISCSGSTNNIGILAATWYQQLPGKAPKVLVYSDGNRPSGVPDRFSGSKSGNSATLTITGLQAEDEADYYCQSFDTTLDAYVFGSGTQLTVLR	1.89	0.92	–	–	–	–	–	–	–	–
mouse: canine 11E12 chimera (antibody) heavy: QVQLQQSGAELVKPGASVKLSCKASGYTFKYYDINWVRQRPEQGLEWIGWIFPGDGGTKYNETFKGKATLTTDKSSSTAYMQLSRLTSEDSAVYFCARGGTSVIRDAMDYWGQGTSVTVSSASTTAPSVFPLAPSCGSTSGSTVALACLVSGYFPEPVTVSWNSGSLTSGVHTFPSVLQSSGLYSLSSMVTVPSSRWPSETFTCNVAHPASKTKVDKPVPKRENGRVPRPPDCPKCPAPEMLGGPSVFIFPPKPKDTLLIARTPEVTCVVVDLDPEDPEVQISWFVDGKQMQTAKTQPREEQFNGTYRVVSVLPIGHQDWLKGKQFTCKVNNKALPSPIERTISKARGQAHQPSVYVLPPSREELSKNTVSLTCLIKDFFPPDIDVEWQSNGQQEPESKYRTTPPQLDEDGSYFLYSKLSVDKSRWQRGDTFICAVMHEALHNHYTQESLSHSPGK light: DIVLTQSPASLAVSLGQRATISCRASESVDNYGISFMHWYQQKPGQPPKLLIYRASNLESGIPARFSGSGSRTDFTLTINPVETDDVATYYCQQSNKDPLTFGAGTKLELKRNDAQPAVYLFQPSPDQLHTGSASVVCLLNSFYPKDINVKWKVDGVIQDTGIQESVTEQDKDSTYSLSSTLTMSSTEYLSHELYSCEITHKSLPSTLIKSFQRSEC	–	–	1.15	0.248	0.000108	437000	0.000826	6.55e-07	793000	–
Feline 11E12 1.2 (antibody, V domains shown) VH: QVLLVQSGAEVKKPGASVKIFCKASGYSFTYYDINWLRQAPEQGLEWMGWIFPGDGGTKYNETFKGRLTLTADTSTNTVYMELSSLRSADTAMYYCARGGTSVIRDAMDYWGQGALVTVSS VL: EVVLTQSSAFLSRTLKEKATITCRASESVDNYGISFMHWYQQKPNQAPKLLVKRASNLESGAPSRFSGSGSGTDFTLTISSPEPEDAATYYCQQSNKDPLTFGQGT	–	–	> 100	–	–	–	–	–	–	> 100
Feline 11E12 1.1 FW2 (antibody, V domains shown) VH: QVLLVQSGAEVKKPGASVKIFCKASGYSFTYYDINWLRQAPEQGLEWMGWIFPGDGGTKYNETFKGRLTLTADTSTNTVYMELSSLRSADTAMYYCARGGTSVIRDAMDYWGQGALVTVSS VL: EIQMTQSPSSLSASPGDRVTITCRASESVDNYGISFMHWYQQKPGQPPKLLIYRASNLESGVPSRFSGSGSGTDFTLTISSLEPEDAATYYCQQSNKDPLTFGQGT	–	–	4.38	0.75	0.000639	852000	7.02	0.000318	45200	5.66
ZTS-927 (antibody) heavy: QVLLVQSGAEVRTPGASVKIFCKASGYSFTSYTIHWLRQAPAQGLEWMGNINPTSGYTENNQRFKDRLTLTADTSTNTAYMELSSLRSADTAMYYCARWGFKYDGEWSFDVWGAGTTVTVSSASTTAPSVFPLAPSCGTTSGATVALACLVLGYFPEPVTVSWNSGALTSGVHTFPAVLQASGLYSLSSMVTVPSSRWLSDTFTCNVAHPPSNTKVDKTVRKTDHPPGPKPCDCPKCPPPEMLGGPSIFIFPPKPKDTLSISRTPEVTCLVVDLGPDDSDVQITWFVDNTQVYTAKTSPREEQFNSTYRVVSVLPILHQDWLKGKEFKCKVNSKSLPSPIERTISKAKGQPHEPQVYVLPPAQEELSRNKVSVTCLIKSFHPPDIAVEWEITGQPEPENNYRTTPPQLDSDGTYFVYSKLSVDRSHWQRGNTYTCSVSHEALHSHHTQKSLTQSPGK light: EIQMTQSPSSLSASPGDRVTITCRASQGISIWLSWYQQKPGNIPKVLINKASNLHIGVPSRFSGSGSGTDFTLTISSLEPEDAATYYCLQSQTYPLTFGGGTKLEIKRSDAQPSVFLFQPSLDELHTGSASIVCILNDFYPKEVNVKWKVDGVVQNKGIQESTTEQNSKDSTYSLSSTLTMSSTEYQSHEKFSCEVTHKSLASTLVKSFQRSECQRE	–	–	5.26	0.614	2.3e-05	37400	–	–	–	1.57
mouse: feline 11E12 chimera (antibody) heavy: QVQLQQSGAELVKPGASVKLSCKASGYTFKYYDINWVRQRPEQGLEWIGWIFPGDGGTKYNETFKGKATLTTDKSSSTAYMQLSRLTSEDSAVYFCARGGTSVIRDAMDYWGQGTSVTVSSASTTAPSVFPLAPSCGTTSGATVALACLVLGYFPEPVTVSWNSGALTSGVHTFPAVLQASGLYSLSSMVTVPSSRWLSDTFTCNVAHPPSNTKVDKTVRKTDHPPGPKPCDCPKCPPPEAAGAPSIFIFPPKPKDTLSISRTPEVTCLVVDLGPDDSDVQITWFVDNTQVYTAKTSPREEQFNSTYRVVSVLPILHQDWLKGKEFKCKVNSKSLPSPIERTISKAKGQPHEPQVYVLPPAQEELSRNKVSVTCLIKSFHPPDIAVEWEITGQPEPENNYRTTPPQLDSDGTYFVYSKLSVDRSHWQRGNTYTCSVSHEALHSHHTQKSLTQSPGK light: DIVLTQSPASLAVSLGQRATISCRASESVDNYGISFMHWYQQKPGQPPKLLIYRASNLESGIPARFSGSGSRTDFTLTINPVETDDVATYYCQQSNKDPLTFGAGTKLELKRSDAQPSVFLFQPSLDELHTGSASIVCILNDFYPKEVNVKWKVDGVVQNKGIQESTTEQNSKDSTYSLSSTLTMSSTEYQSHEKFSCEVTHKSLASTLVKSFQRSECQRE	–	–	3.45	0.13	5.06e-05	388000	0.000127	8.7e-08	684000	4.4
ZIL69 (antibody, V domains shown) VH: EVQLVESGGDLVKPAGSLRLSCVASGFTFSSYAMKWVRQAPGKGLQWVATINNDGTRTGYADAVRGRFTISKDNAKNTLYLQMDSLRADDTAVYYCTKGNAESGCTGDHCPPYWGQGTLVTVSS VL: SSVLTQPPSVSVSLGQTATISCSGESLNKYYAQWFQQKAGQAPVLVIYKDTERPSGIPDRFSGSSAGNTHTLTISGARAEDEADYYCESAVSSETNVFGSGTQLTVLR	1.48	0.92	–	–	–	–	–	–	–	–
ZIL94 (antibody, V domains shown) VH: EVQLVDSGGDLVKPGGSLRLSCVASGFTFSTYFMSWVRQAPGRGLQWVALISSDGSGTYYADAVKGRFTISRDNAKNTLYLQMNSLRAEDTAMYYCAIFWRAFNDWGQGTLVTVSS VL: QTVVIQEPSLSVSPGGTVTLTCGLNSGSVSTSNYPGWYQQTRGRTPRTIIYDTGSRPSGVPNRFSGSISGNKAALTITGAQPEDEADYYCSLYTDSDILVFGGGTHLTVLR	1.67	1.3	–	–	–	–	–	–	–	–
Feline 15H05 3.2 (antibody, V domains shown) VH: QVLLVQSGAEVRKPGASVKIFCKASGYSFTSYTIHWLRQAPEQGLEWMGNINPTSGYTENNQRFKDRLTLTADTSTNTAYMELSSLRSADTAMYYCARWGFKYDGEWSFDVWGAGTTVTVSS VL: EITMTQSPGSLAGSPGQQVTMNCRASQGISIWLSWYQQKPGQHPKLLIYKASNLHIGVPDRFSGSGSGTDFTLTISNLQAEDVASYYCLQSQTYPLTFGGGTKLEIK	–	–	–	12.6	0.00166	132000	0.204	6.04e-06	29700	–
ZIL9 (antibody, V domains shown) VH: EVQLVESGGDLVKPPGSLRLSCVASGFTFSSYDMTWVRQAPGKGLQWVADVNSGGTGTAYAVAVKGRFTISRDNAKKTLYLQMNSLRAEDTAVYYCAKLGVRDGLSVWGQGTLVTVSS VL: SSVLTQPPSVSVSLGQTATISCSGESLNEYYTQWFQQKAGQAPVLVIYRDTERPSGIPDRFSGSSSGNTHTLTISGARAEDEADYYCESAVDTGTLVFGGGTHLAVLR	1.8	0.73	–	–	–	–	–	–	–	–
ZIL171 (antibody, V domains shown) VH: EVQLVESGGDLVKPAGSLRLSCVASGFTFRTYVMNWVRQAPGKGLQWVASINGGGSSPTYADAVRGRFTVSRDNAQNSLFLQMNSLRAEDTAIYFCVVSMVGPFDYWGHGTLVTVSS VL: SSVLTQPPSVSVSLGQTATISCSGKSLSYYYAQWFQQKAGQAPVLVIYKDTERPSGIPDRFSGSSSGNTHTLTISGARAEDEADYYCESAVSSDTIVFGGGTHLTVLR	1.42	0.93	–	–	–	–	–	–	–	–
